The target of test [1] is actin filaments (actin purified from rabbit skeletal muscle, polymerized) (rabbit, UniProt P68135 1-377). As to the kind of experiment: co-sedimentation.
For test [2], the target named is T1, GST fusion protein with α catenin (mouse, UniProt P26231 1-906).
T1 sequence (looked up): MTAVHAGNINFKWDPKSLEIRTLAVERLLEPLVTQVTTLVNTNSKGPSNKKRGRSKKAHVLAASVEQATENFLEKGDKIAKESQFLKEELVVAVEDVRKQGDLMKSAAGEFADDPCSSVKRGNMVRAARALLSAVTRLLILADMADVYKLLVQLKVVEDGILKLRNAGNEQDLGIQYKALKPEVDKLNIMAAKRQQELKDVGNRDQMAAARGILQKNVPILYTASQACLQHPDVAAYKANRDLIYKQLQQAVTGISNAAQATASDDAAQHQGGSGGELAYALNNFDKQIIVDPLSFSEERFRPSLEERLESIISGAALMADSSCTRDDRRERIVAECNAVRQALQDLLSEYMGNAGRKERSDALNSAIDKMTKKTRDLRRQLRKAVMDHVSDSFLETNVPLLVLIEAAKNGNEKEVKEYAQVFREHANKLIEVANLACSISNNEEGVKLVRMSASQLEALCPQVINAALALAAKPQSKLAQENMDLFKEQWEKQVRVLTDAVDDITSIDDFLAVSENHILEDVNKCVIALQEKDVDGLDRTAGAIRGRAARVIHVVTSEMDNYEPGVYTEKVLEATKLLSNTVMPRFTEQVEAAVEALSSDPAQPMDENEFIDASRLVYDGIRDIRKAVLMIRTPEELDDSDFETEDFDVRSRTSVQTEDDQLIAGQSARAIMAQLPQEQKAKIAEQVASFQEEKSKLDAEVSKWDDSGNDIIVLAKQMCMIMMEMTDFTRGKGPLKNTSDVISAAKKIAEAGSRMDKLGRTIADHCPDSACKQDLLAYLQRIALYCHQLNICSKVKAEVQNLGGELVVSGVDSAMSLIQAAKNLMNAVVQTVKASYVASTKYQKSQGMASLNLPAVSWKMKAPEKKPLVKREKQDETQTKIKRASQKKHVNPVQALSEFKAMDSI
As to the kind of experiment: pull-down.

B1: recombinant carboxyl-terminal half of ZO-1 (C-ZO-1; 863–1745 aa) produced in Sf9 cells (domain or fragment)
chain: NDEVGTPPESAITRSSEPVREDSSGMHHENQTYPPYSPQAQPQAIHRIDSPGLKPASQQKAEASSPVPYLSPETTPASSASAVNHNVSVTNVSLEEPAPAPPTSHASQPGCLGAPSAEAAHVVLRGEGPPLPPHADPAKVYRKEPYSEEMMRQNHILKQPALGHPGQRPDKEPNLAYEPQLPYIEKQASRDLEQPSYRYEVSSYTDQFSRNYDHRLRFEDRIPTYEDQWSYYDDKQPYQPRPFENQHPRDLDSRQHPEEASERGYFQRFEEPAPLSYDSRTRYEQLPRTSTLRHEEQPAPAYEVHNRYRPEAQPYSSTGPKSSEPKQYFDQYPRSYEQVPPPGFTSKTGHYEPLHGAAVVPPLIPSSQQKPEVLPSATKPQPPPPTLTEEEEDPAMKPQSVLTRVKMFENKRSASLENKKDVNDTASFKPPEVASKPPGASLAGPKPVPQSQFSEHDKTLYRLPEPQKPQVKPPEDIVRSNHYDPEEDEEYYRKQLSYFDRRSFESKPSAHLPAGHHSEPAKPVHSQSQPNFSSYSSKGKPETDAVDRSFSEKRYDPAQATPPPPPLPSQYSQPAPPLSSSSLHIHSKGAQGEGNSVSLDFQNSYMSKPDPPPSQSKPATFRPPTREDPPQTFYPQKSFPDKAPVNGAEQTQKTITPVYNRFTPKPYTSSARPFERKFESPKFNHNLLPSETVHKPELSSKTPTSPKTLMKAHSSTQPPEFDSGVETFSVHTDKPKYQMNNISTMPKAVPVSPSAVEEDEDEDGHTVVATARGIFNSNGGVLSSIETGVSIIIPQGAIPEGIEQEIYFKVCRDNSILPPLDKEKGETLLSPLVMCGPHGLKFLKPVELRLPHCDPKTWQNKCLPGDPNYLVGANCVSVLIDHF
Molecule B1 registered a Kd in test [1] of roughly 10 nM.

B2: recombinant amino-terminal half dlg-like domain of ZO-1 (N-ZO-1; 1–862 aa) produced in Sf9 cells (domain or fragment, mouse, UniProt P39447 1-862, looked up)
chain: MSARAAAAKSTAMEETAIWEQHTVTLHRAPGFGFGIAISGGRDNPHFQSGETSIVISDVLKGGPAEGQLQENDRVAMVNGVSMDNVEHAFAVQQLRKSGKNAKITIRRKKKVQIPVSHPDPEPVSDNEDDSYDEEVHDPRAGRGALANRRSEKSWARDRSASRERSLSPRSDRRSVASSQPAKPTKVTLVKSRKNEEYGLRLASHIFVKEISQDSLAARDGNIQEGDVVLKINGTVTENMSLTDAKTLIERSKGKLKMVVQRDERATLLNVPDLSDSIHSANASERDDISEIQSLASDHSGRSHDRPPRRSQSRSPDQRSEPSDHSTQSPQQPSNGSLRSREEERMSKPGAISTPVKHVDDHPPKAVEEVTVEKNEKQTPTLPEPKPVYAQVGQPDVDLPVSPSDGALPNSAHEDGILRPSMKLVKFRKGDSVGLRLAGGNDVGIFVAGVLEDSPAAKEGLEEGDQILRVNNVDFTNIIREEAVLFLLDLPKGEEVTILAQKKKDVYRRIVESDVGDSFYIRTHFEYEKESPYGLSFNKGEVFRVVDTLYNGKLGSWLAIRIGKNHKEVERGIIPNKNRAEQLASVQYTLPKTAGGDRADFWRFRGLRSSKRNLRKSREDLSAQPVQTKFPAYERVVLREAGFLRPVTIFGPIADVAREKLAREEPDIYQIAKSEPRDAGTDHRSSGIIRLHTIKQIIDQDKHALLDVTPNAVDRLNYAQWYPIVVFLNPDSKQGVKTMRMRLCPESRKSARKLYERSHKLRKNNHHLFTTTINLNSMNDGWYGALKEAIQQQQNQLVWVSEGKADGATSDDLDLHDDRLSYLSAPGSEYSMYSTDSRHTSDYEDTDTEGGAYTDQELDETL
As to B2, the Kd in test [2] is roughly 0.5 nM.

By Kd is commonly meant the constant that tells how readily two partners part at equilibrium. High values mean lower affinity, low ones higher affinity.

The values are drawn from PMC2139940 (The Journal of Cell Biology, 1997).
